Experimental data published in patent publication US20210179715A1 (Genentech, published 2021).
Several values for one entry are separate records, joined by “and”; a condition that tells them apart may be missing. Identical values can stand only once. Like-named read-outs stand apart in the source and are kept apart here. Each block holds one binder with its values, some of them ahead of it.

Assays:
[1] = molecular target: T1, polypeptide comprising amino acids 93-104 of LY6G6D (HRDCYLGDLCNS) (human); test: co-crystal structure
T1 construct: also called LY6G6D peptide
T1 peptide: HRDCYLGDLCNS

[2] = molecular target: T2, human LY6G6D-Fc (human, UniProt O95868 20-104); test: BIAcore SPR; LY6G6D-Fc on chip; TDB flowed; 37 C
T2 construct: also called hu Ly6G6D; huLY6G6D; not shown: linker and Fc part
T2 sequence: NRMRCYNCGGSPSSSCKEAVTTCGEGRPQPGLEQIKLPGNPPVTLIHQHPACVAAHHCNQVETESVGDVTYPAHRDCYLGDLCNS
Description: TDBs comprising the anti-LY6G6D arm 20Al2.QNTv12 and the anti-CD3 38E4.v1 (left panel; produced using a two-cell-manufacturing system), 38E4.v1 MD1 (center panel; produced using a one-cell-manufacturing system), or 38E4.v1 MD4 arm (right panel; produced using a one-cell-manufacturing system) were assayed for affinity for a human Ly6G6D polypeptide (FIG. 25) using a BIAcore assay.

[3] = molecular target: T3, 27mer human CD3 polypeptide conjugated to biotin (human, conjugated to biotin (site not stated)); test: BIAcore T200 SPR; biotin 27mer CD3 peptide on SA chip; TDB flowed; 37 C
T3 construct: The assay text says only '27mer human CD3 polypeptide'; also called HuCD3e pept biotin
T3 peptide: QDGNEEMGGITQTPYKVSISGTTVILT
Description: The MD1 and MD4 variants thus retained the high affinity of 38E4v1. Assays were performed using a BIAcore T200: 27mer human and cyno CD3 polypeptides were conjugated to biotin and were immobilized on a SA CM5 chip, and TDBs were flowed through at 100 μl/min at 37° C.

[4] = molecular target: T3, 27mer human CD3 polypeptide conjugated …; test: as above
Description: Assays were performed using a BIAcore T200. 27mer human and cyno CD3 polypeptides were conjugated to biotin and were immobilized on a SA CM5 chip. LY6G6D TDBs were flowed through at 37° C.

[5] = molecular target: T2, human LY6G6D-Fc; test: BIAcore SPR; LY6G6D-Fc on chip; TDB flowed; 37 C; remark: listed apart in the source
Description: TDBs comprising the anti-LY6G6D 20A12.QNTv12 arm and the anti-CD3 38E4.v1 arm (FIG. 24A) or 40G5C arm (FIG. 24B) were assayed for affinity for a human and cyno Ly6G6D polypeptide using a BIAcore assay. Ly6G6D-Fc was directly immobilized on the chip, and the TDB was flowed through at 37° C. Similar assays were performed for TDBs comprising the anti-LY6G6D 1G4 arm and the anti-CD3 38E4.v1 arm (FIG. 24C) or 40G5C arm (FIG. 24D).

[6] = molecular target: T2, human LY6G6D-Fc; test: BIAcore SPR; LY6G6D-Fc on chip; Fab flowed; 37 C
Description: (§1) The humanized rb.20A12 variant 20A12.QNTv12, the humanized rb.6E10 variant 6E10.v114, and the anti-LY6G6D 1G4 arm were paired with the anti-CD3 38E4v1 or 40G5c arm as TDBs and tested for affinity to human and cynomolgus LY6G6D in a BIAcore® assay. Rabbit 20Al2, rabbit 6E10, and humanized 20A12.QNTv12 and 20A12.SNVv12 were additionally assayed for binding as antigen-binding fragments (Fabs). LY6G6D-Fc was directly immobilized on a chip, and TDBs were flowed through at 37° C., except for the rb6E10 Fab, which was assayed at 25° C.

[7] = molecular target: T2, human LY6G6D-Fc; test: BIAcore SPR
Description: as §1

[8] = molecular target: T1, polypeptide comprising amino acids …; test: co-crystal structure, 2.2 A
Description: Ten 20A12.QNTv12 Fabs were tested.

[9] = molecular target: T2, human LY6G6D-Fc; test: BIAcore SPR; chimeric Fab; Ly6G6D-Fc captured on Protein A chip; 37 C

B5: LY6G6D TDB assembled using a one-cell system comprising the anti-LY6G6D 20A12.QNTv12 arm (one-cell) and the anti-CD3 38E4v1 (WT) arm (bispecific antibody, V domains shown)
VH 1: EVQLLESGGGLVQPGGSLRLSCAASGFDFVNNAMIWVREAPGKGLEWVSALSFADNTAYYATWASGRFTISRDSSKTTVYLQMNSLRAEDTAVYYCMRGDLWGPGTLVTVSS
VL 1: DIQMTQSPSTLSASVGDRVTITCQASESITRYLNWYQKKPGKAPKLLIYDASKLPSGVPSRFSGSGSGTEFTLTISSLQPDDFATYYCQSTSFRGRSYQNTFGGGTKVEIK
VH 2: EVQLVQSGAEVKKPGASVKVSCKASGFTFTSYYIHWVRKAPGQGLEWIGWIYPENDNTKYNEKFKDRVTITADTSTSTAYLELSSLRSEDTAVYYCARDGYSRYYFDYWGQGTLVTVSS
VL 2: DIVMTQSPDSLAVSLGERATINCKSSQSLLNSRTRKNYLAWYQEKPGQSPKLLIYWTSTRKSGVPDRFSGSGSGTDFTLTISSLQAEDVAVYYCKQSFILRTFGQGTKVEIK
notes: also called WT one-cell; one-cell WT
Kd [3]: 19.9 nM and 21.3 nM
koff [3]: 0.0516 s⁻¹ and 0.0498 s⁻¹
kon [3]: 2.59e+06 M⁻¹ s⁻¹ and 2.34e+06 M⁻¹ s⁻¹
Kd [4]: 20.6 nM

B6: hu20A12.QNTv12 Fab (Fab, V domains shown)
VH: EVQLLESGGGLVQPGGSLRLSCAASGFDFVNNAMIWVRQAPGKGLEWVSALSFADNTAYYATWASGRFTISRDSSKTTVYLQMNSLRAEDTAVYYCMRGDLWGPGTLVTVSS
VL: DIQMTQSPSTLSASVGDRVTITCQASESITRYLNWYQQKPGKAPKLLIYDASKLPSGVPSRFSGSGSGTEFTLTISSLQPDDFATYYCQSTSFRGRSYQNTFGGGTKVEIKR
Kd [7]: 0.14 nM
binding result [8]: binds
Kd [6]: 0.136 nM
koff [6]: 0.000227 s⁻¹
kon [6]: 1.67e+06 M⁻¹ s⁻¹

B7: LY6G6D TDB assembled using a one-cell system comprising the anti-LY6G6D 20A12.QNTv12 arm (one-cell) and the anti-CD3 38E4v1 MD1 arm (bispecific antibody, V domains shown)
VH 1: EVQLLESGGGLVQPGGSLRLSCAASGFDFVNNAMIWVREAPGKGLEWVSALSFADNTAYYATWASGRFTISRDSSKTTVYLQMNSLRAEDTAVYYCMRGDLWGPGTLVTVSS
VL 1: DIQMTQSPSTLSASVGDRVTITCQASESITRYLNWYQKKPGKAPKLLIYDASKLPSGVPSRFSGSGSGTEFTLTISSLQPDDFATYYCQSTSFRGRSYQNTFGGGTKVEIK
VH 2: EVQLVQSGAEVKKPGASVKVSCKASGFTFTSYYIHWVRKAPGQGLEWIGWIYPENDNTKYNEKFKDRVTITADTSTSTAYLELSSLRSEDTAVYYCARDGYSRYYFDYWGQGTLVTVSS
VL 2: DIVMTQSPDSLAVSLGERATINCKSSQSLLNSRTRKNYLAWYQEKPGQPPKLLIYWASTRESGVPDRFSGSGSGTDFTLTISSLQAEDVAVYYCTQSFILRTFGQGTKVEIK
notes: also called 20A12.QNTv12.MD1/38E4v1; MD1 one-cell
Kd [2]: 1.9 nM
koff [2]: 0.000796 s⁻¹
kon [2]: 420000 M⁻¹ s⁻¹
Kd [3]: 32.8 nM and 32.4 nM
koff [3]: 0.0504 s⁻¹ and 0.0456 s⁻¹
kon [3]: 1.54e+06 M⁻¹ s⁻¹ and 1.41e+06 M⁻¹ s⁻¹
Kd [4]: 32.6 nM

B8: rb20A12.IA (C35I-C50A) chimeric Fab (Fab, V domains shown)
VH: QQQLEESGGDLVKPGASLTLTCTASGFDFVNNAMIWVRQAPGKGLEWIAALSFADNTAYYATWASGRFTISKISSTTVTLRMTSLTGADTATYFCMRGDLWGPGTLVTVSS
VL: DIVMTQTPSSVSAAVGGTVTINCQASESITRYLNWYQQKPGQPPKLLIYDASKLPSGVPSRFKGSGSGTQFTLTTSDLECADAATYYCQSTSFRGRSYNNTFGGGTEVVVK
notes: also called rabbit 20A12 comprising C35I and C50A (IA) mutations
Kd [9]: 0.86 nM

Next, values leading:

binding result [1]: binds
B1: 1G4 Fab (Fab, V domains shown)
VH: EVQLVQSGAEVKKPGASVKVSCKASGYTFTTYVMHWVRQAPGQGLEWMGYINPYNDGTKYNEKFKGRVTMTRDTSISTAYMELSRLRSDDTAVYYCGRRNFDYWGQGTLVTVSS
VL: DIVMTQSPDSLAVSLGERATINCKSSQSLLLSGNQENYLAWHQQKPGQPPKTLITWASTRISGVPDRFSGSGSGTDFTLTISSLQAEDVAVYYCQQSYSAPYTFGGGTKVEIKR
notes: also called Fab of 1G4

Kd [2]: 1.89 nM
koff [2]: 0.000559 s⁻¹
kon [2]: 296000 M⁻¹ s⁻¹
Kd [3]: 18.8 nM and 18.6 nM
koff [3]: 0.0544 s⁻¹ and 0.0495 s⁻¹
kon [3]: 2.89e+06 M⁻¹ s⁻¹ and 2.66e+06 M⁻¹ s⁻¹
Kd [4]: 18.7 nM
B2: LY6G6D TDB assembled using a one-cell system comprising the anti-LY6G6D 20A12.QNTv12 arm (one-cell) and the anti-CD3 38E4v1 MD4 arm (bispecific antibody, V domains shown)
VH 1: EVQLLESGGGLVQPGGSLRLSCAASGFDFVNNAMIWVREAPGKGLEWVSALSFADNTAYYATWASGRFTISRDSSKTTVYLQMNSLRAEDTAVYYCMRGDLWGPGTLVTVSS
VL 1: DIQMTQSPSTLSASVGDRVTITCQASESITRYLNWYQKKPGKAPKLLIYDASKLPSGVPSRFSGSGSGTEFTLTISSLQPDDFATYYCQSTSFRGRSYQNTFGGGTKVEIK
VH 2: EVQLVQSGAEVKKPGASVKVSCKASGFTFTSYYIHWVRKAPGQGLEWIGWIYPENDNTKYNEKFKDRVTITADTSTSTAYLELSSLRSEDTAVYYCARDGYSRYYFDYWGQGTLVTVSS
VL 2: DIVMTQSPDSLAVSLGERATINCKSSQSLLNSRTRKNYLAWYQEKPGQPPKLLIYWASTRKSGVPDRFSGSGSGTDFTLTISSLQAEDVAVYYCKQSFILRTFGQGTKVEIK
notes: also called 20A12.QNTv12.MD4/38E4v1; MD4 one-cell

Kd [5]: 16.3 nM
koff [5]: 0.00886 s⁻¹
kon [5]: 544000 M⁻¹ s⁻¹
B3: LY6G6D TDB comprising the anti-LY6G6D 1G4 arm and the anti-CD3 38E4.v1 arm (bispecific antibody, V domains shown)
VH 1: EVQLVQSGAEVKKPGASVKVSCKASGYTFTTYVMHWVRQAPGQGLEWMGYINPYNDGTKYNEKFKGRVTMTRDTSISTAYMELSRLRSDDTAVYYCGRRNFDYWGQGTLVTVSS
VL 1: DIVMTQSPDSLAVSLGERATINCKSSQSLLLSGNQENYLAWHQQKPGQPPKTLITWASTRISGVPDRFSGSGSGTDFTLTISSLQAEDVAVYYCQQSYSAPYTFGGGTKVEIK
VH 2: EVQLVQSGAEVKKPGASVKVSCKASGFTFTSYYIHWVRQAPGQGLEWIGWIYPENDNTKYNEKFKDRVTITADTSTSTAYLELSSLRSEDTAVYYCARDGYSRYYFDYWGQGTLVTVSS
VL 2: DIVMTQSPDSLAVSLGERATINCKSSQSLLNSRTRKNYLAWYQQKPGQSPKLLIYWTSTRKSGVPDRFSGSGSGTDFTLTISSLQAEDVAVYYCKQSFILRTFGQGTKVEIK
notes: also called 1G4/38E4v1

Kd [6]: 0.0195 nM
koff [6]: 4.26e-05 s⁻¹
kon [6]: 2.18e+06 M⁻¹ s⁻¹
B4: hu20A12.SNVv12 Fab (Fab, V domains shown)
VH: EVQLLESGGGLVQPGGSLRLSCAASGFDFVNNAMIWVRQAPGKGLEWVSALSFADNTAYYATWASGRFTISRDSSKTTVYLQMNSLRAEDTAVYYCMRGDLWGPGTLVTVSS
VL: DIQMTQSPSTLSASVGDRVTITCQASESITRYLNWYQQKPGKAPKLLIYDASKLPSGVPSRFSGSGSGTEFTLTISSLQPDDFATYYCQSTSFRGRSYSNVFGGGTKVEIKR
